In US20080199443A1:
One block for each substance: values may come before it.

Columns and labels:
[1] = target: Xenopus GDF5 (wild type, full-length open reading frame expressed from injected mRNA) (Xenopus); test: cell-based or functional assay
[2] = tested on: Xenopus GDF5 with a T7 epitope tag (GDF5-T7)

Chain of Xenopus Furin (P29119 whole entry): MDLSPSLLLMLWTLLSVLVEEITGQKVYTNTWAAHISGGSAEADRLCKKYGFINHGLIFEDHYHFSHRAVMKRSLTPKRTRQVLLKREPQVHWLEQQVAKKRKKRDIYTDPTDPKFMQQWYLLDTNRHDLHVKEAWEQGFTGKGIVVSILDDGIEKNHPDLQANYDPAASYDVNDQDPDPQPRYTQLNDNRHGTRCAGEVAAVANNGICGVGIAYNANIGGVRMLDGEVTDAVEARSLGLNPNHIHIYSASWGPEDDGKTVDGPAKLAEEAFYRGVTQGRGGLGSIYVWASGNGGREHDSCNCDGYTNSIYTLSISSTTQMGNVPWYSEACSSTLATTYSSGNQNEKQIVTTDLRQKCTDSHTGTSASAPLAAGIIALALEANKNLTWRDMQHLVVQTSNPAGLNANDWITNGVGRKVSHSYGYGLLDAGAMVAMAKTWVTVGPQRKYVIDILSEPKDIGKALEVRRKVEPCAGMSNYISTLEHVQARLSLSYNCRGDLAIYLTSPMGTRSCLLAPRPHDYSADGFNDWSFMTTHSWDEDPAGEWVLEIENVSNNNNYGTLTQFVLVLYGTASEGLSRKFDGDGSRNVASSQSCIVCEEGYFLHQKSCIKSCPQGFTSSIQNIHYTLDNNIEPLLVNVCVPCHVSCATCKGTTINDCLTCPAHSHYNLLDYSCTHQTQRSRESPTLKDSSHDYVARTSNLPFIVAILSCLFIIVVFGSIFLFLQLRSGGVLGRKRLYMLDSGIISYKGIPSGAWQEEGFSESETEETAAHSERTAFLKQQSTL

Substance: Xenopus Furin
proteolytic processing to the mature peptide; anti-T7 immunoblot of Xenopus oocyte supernatants [2]: XGDF5 and Vg1 mature peptides could be detected only when mRNAs encoding both Furin and SPC6 were co-injected with the growth factor messages

Substance: Xenopus SPC4 (enzyme)
Average DAI (Dorso-Anterior Index), ventralization of Xenopus embryos after co-injection of mRNAs [1]: 4.8 DAI

Substance: Xenopus SPC6A
proteolytic processing to the mature peptide; anti-T7 immunoblot of Xenopus oocyte supernatants [2]: XGDF5 and Vg1 mature peptides could be detected only when mRNAs encoding both Furin and SPC6 were co-injected with the growth factor messages

Second part, the substance after the results:

Average DAI (Dorso-Anterior Index), ventralization of Xenopus embryos after co-injection of mRNAs [1]: 4.8 DAI
Average DAI, ventralization of Xenopus embryos; GDF5 mRNA co-injected with Furin and SPC6 mRNAs together [1]: 2.4 DAI
Substance: Xenopus Furin (enzyme)

Average DAI (Dorso-Anterior Index), ventralization of Xenopus embryos after co-injection of mRNAs [1]: 4.9 DAI
Average DAI, ventralization of Xenopus embryos; GDF5 mRNA co-injected with Furin and SPC6 mRNAs together [1]: 2.4 DAI
Substance: Xenopus SPC6A (enzyme)
